Measurements as given in PMC9340540.

Tests used:
CHN-1 (C. elegans) [1] = test: SEC; S200 Superdex column; CHN-1 alone, UFD-2 alone and CHN-1 + UFD-2 mixed in equal molar ratios
CHN-1 (C. elegans) [2] = target: CHN-1 (C. elegans)
Target sequence in this assay (main, as listed by the source): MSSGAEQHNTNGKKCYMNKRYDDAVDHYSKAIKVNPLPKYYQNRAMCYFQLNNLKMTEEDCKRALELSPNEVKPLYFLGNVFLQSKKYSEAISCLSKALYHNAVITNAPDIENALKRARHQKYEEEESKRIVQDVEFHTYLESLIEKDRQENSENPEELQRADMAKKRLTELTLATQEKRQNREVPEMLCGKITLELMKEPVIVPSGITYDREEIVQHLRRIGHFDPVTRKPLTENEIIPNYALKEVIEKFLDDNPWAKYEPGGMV

UFD-2, sequence (Q09349 whole entry): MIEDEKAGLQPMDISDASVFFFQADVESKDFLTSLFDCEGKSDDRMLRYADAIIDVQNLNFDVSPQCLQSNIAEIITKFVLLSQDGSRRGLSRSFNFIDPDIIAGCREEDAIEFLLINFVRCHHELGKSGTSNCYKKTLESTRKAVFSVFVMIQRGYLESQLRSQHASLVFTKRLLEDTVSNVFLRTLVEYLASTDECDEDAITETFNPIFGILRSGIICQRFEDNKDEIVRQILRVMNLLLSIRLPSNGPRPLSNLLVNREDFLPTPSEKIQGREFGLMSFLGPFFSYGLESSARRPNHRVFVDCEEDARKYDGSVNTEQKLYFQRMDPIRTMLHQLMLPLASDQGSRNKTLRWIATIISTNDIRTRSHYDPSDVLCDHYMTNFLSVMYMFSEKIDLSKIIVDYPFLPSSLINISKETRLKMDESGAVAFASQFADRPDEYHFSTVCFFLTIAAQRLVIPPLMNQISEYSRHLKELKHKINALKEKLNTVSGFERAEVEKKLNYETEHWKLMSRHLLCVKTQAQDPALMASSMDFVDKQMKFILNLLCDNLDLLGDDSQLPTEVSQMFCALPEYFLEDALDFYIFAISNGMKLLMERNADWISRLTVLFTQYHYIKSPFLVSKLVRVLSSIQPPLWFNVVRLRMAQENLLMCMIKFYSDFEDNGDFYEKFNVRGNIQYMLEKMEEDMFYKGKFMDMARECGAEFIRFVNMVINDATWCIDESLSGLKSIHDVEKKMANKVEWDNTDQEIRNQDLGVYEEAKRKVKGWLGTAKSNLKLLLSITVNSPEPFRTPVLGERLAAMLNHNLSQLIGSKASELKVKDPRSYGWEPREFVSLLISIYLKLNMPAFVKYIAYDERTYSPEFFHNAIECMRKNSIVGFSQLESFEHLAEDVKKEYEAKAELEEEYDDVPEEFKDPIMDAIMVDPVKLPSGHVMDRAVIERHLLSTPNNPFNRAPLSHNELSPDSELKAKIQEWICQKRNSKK

stoichiometry N (CHN-1 (C. elegans) [1])	CHN-1 auto-ubiquitylation (UBE2D1); UFD-2 titrated at 0.3, 0.65 and 1.3 μM against 1.3 μM CHN-1 (CHN-1 (C. elegans) [2]) [fold]	Substance
2	–	CHN-1 (enzyme)
–	2	UFD-2 (from UniProt Q09349 1-984) (enzyme)
